# Biological target: integrins on HS deficient CHO-2241 cells (Chinese hamster (endogenous in CHO-2241))
# Test: flow cytometry on cells; CHO-2241 cells (HS deficient) in PBS 1 mM CaCl2, 1 h at 4°C with 15 ug/mL particles; bound particles detected with rabbit serum against the Ad3 penton base and FITC secondary antibody
substance,measurement,value
"MutAQAS dodecahedron (HAd3 penton base, KQKR to AQAS) (from UniProt Q2Y0H9 1-544) (complex)",inhibition of binding compared to Bs-Dd,80%

# From PMC2833306
